Laboratory results published in doi:10.1101/636423.
pKi: −log10 of the molar value.

Columns and labels:
[1] = biological target: whole intracellular region of rat PTPRZ (rat PTPRZ-ICR) (rat) (UniProt Q62656); experiment: inhibition of PTPase catalytic activity
[2] = biological target: whole intracellular region of rat PTPRZ (rat PTPRZ-ICR) (rat) (UniProt Q62656); experiment: native MS

whole intracellular region of rat PTPRZ (rat PTPRZ-ICR) (rat), sequence (Q62656 1699-2316): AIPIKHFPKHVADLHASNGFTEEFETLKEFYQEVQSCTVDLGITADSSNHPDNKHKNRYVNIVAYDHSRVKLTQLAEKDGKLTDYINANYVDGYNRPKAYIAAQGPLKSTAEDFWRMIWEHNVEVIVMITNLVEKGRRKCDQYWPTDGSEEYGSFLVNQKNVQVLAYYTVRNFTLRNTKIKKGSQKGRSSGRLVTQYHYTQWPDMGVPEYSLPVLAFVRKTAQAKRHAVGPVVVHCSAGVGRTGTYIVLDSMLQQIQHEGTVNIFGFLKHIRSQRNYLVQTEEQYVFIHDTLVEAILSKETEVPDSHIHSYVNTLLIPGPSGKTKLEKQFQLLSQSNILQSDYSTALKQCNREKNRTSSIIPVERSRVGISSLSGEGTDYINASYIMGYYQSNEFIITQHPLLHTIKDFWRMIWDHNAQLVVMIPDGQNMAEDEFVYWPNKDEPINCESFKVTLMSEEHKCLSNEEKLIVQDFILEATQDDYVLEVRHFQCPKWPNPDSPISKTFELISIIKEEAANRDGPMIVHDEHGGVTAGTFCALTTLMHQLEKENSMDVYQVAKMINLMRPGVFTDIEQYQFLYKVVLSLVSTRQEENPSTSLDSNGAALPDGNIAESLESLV
F2Pmp-GIT1_(550–556), non-hydrolyzable pTyr mimetic (F2Pmp)-containing substrate-mimetic inhibitor peptide, sequence (Q9Z272 whole entry, looked up, tested part not stated): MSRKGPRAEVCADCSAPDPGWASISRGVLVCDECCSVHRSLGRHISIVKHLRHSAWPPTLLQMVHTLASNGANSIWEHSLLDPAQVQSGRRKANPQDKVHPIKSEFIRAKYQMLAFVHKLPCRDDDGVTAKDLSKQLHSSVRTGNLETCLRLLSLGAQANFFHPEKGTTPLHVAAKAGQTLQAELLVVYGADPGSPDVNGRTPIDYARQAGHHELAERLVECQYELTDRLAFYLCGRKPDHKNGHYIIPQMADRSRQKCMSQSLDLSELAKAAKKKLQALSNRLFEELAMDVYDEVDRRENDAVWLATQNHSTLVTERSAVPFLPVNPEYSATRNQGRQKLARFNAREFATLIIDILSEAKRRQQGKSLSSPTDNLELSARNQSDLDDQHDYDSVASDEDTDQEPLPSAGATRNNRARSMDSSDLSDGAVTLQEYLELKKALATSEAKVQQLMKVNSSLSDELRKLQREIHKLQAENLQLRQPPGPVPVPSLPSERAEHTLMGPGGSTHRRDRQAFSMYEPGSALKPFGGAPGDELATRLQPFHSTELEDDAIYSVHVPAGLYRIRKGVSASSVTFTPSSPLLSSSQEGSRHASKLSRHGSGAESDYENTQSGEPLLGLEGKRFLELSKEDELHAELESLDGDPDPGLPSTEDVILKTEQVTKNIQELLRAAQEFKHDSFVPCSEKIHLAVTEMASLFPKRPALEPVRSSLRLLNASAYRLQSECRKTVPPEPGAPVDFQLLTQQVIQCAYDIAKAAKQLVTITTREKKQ

pKi [1]: 5.51
stoichiometry N [2]: 1
Substance: F2Pmp-GIT1_(550–556), non-hydrolyzable pTyr mimetic (F2Pmp)-containing substrate-mimetic inhibitor peptide (from UniProt Q9Z272 550-556)
